Residue numbers refer to the chain shown, from its start.
B1: QD6/B09-57 DuetMab (bispecific antibody, human IgG1, kappa, lambda)
heavy 1: QVQLVQSGAEVKKPGSSVKVSCKASGGTFSDNDFSWVRQAPGQGLEWMGAIVAVVRTETYAQKFQDRVKITADISTRTTYMELSSLRSEDTAVYYCARRLMSAISGPGAPLLMWGQGTLVTVSSASTKGPSVFPLAPSSKSTSGGTAALGCLVKDYFPEPVTVSWNSGALTSGVHTFPAVLQSSGLYSLSSVVTVPSSSLGTQTYICNVNHKPSNTKVDKRVEPKSCDKTHTCPPCPAPELLGGPSCVFLFPPKPKDTLMISRTPEVTCVVVDVSHEDPEVKFNWYVDGVEVHNAKTKPREEQYNSTYRVVSVLTVLHQDWLNGKEYKCKVSNKALPAPIEKTISKAKGQPREPQVCTLPPSREEMTKNQVSLSCAVKGFYPSDIAVEWESNGQPENNYKTTPPVLDSDGSFFLVSKLTVDKSRWQQGNVFSCSVMHEALHNHYTQKSLSLSPGK
light 1: QSALTQPRSVSGSPGQSVTISCTGTSSDVGGYNYVSWYQQHPGKAPKLMIYDVSERPSGVPDRFSGSKSGNTASLTISGLQAEDEADYYCFSYTSSDTLEIFGGGTKLTVLGQPKAAPSVTLFPPSSEELQANKATLVCLISDFYPGAVTVAWKADSSPVKAGVETTTPSKQSNNKYAASSYLSLTPEQWKSHRSYSCQVTHEGSTVEKTVAPTECS
heavy 2: QVQLVQSGAEVKKPGASVKVSCKASGYTFTDYYIHWVRQATGQGLEWMGWMNPNSGNTGYAQKFQGRVTMTRDTSISTAYMELSSLRSEDTAVYYCARGQGYTHSWGQGTMVTVSSASTKGPSVCPLAPSSKSTSGGTAALGCLVKDYFPEPVTVSWNSGALTSGVHTFPAVLQSSGLYSLSSVVTVPSSSLGTQTYICNVNHKPSNTKVDKRVEPKSVDKTHTCPPCPAPELLGGPSCVFLFPPKPKDTLMISRTPEVTCVVVDVSHEDPEVKFNWYVDGVEVHNAKTKPREEQYNSTYRVVSVLTVLHQDWLNGKEYKCKVSNKALPAPIEKTISKAKGQPREPQVYTLPPCREEMTKNQVSLWCLVKGFYPSDIAVEWESNGQPENNYKTTPPVLDSDGSFFLYSKLTVDKSRWQQGNVFSCSVMHEALHNHYTQKSLSLSPG
light 2: DIQMTQSPSTLSASVGDRVTITCRASEGIYHWLAWYQQKPGKAPKLLIYKASSLASGVPSRFSGSGSGTEFTLTISSLQPDDFATYYCQQYSNYPPTFGGGTKLEIKRTVAAPSVFIFPPCDEQLKSGTASVVCLLNNFYPREAKVQWKVDNALQSGNSQESVTEQDSKDSTYSLSSTLTLSKADYEKHKVYACEVTHQGLSSPVTKSFNRGEV
notes: Monovalent bispecific IgG1 DuetMab with cysteine insertion after Ser239; Labelled with AlexaFluor-647 in the microscopy experiments; also called QD06/B09-57; bispecific EGFR/cMET DuetMAb
B2: RAA22/R347-AZ1508 (bispecific antibody, part only; not given: R347 control arm and constant regions, V domains shown, part only)
VH: QVQLVQSGAEVKKPGSSVKVSCKASGGTFSDNDFSWVRQAPGQGLEWMGAIVAVFRTETYAQKFQDRVKITADISTRTTYMELSSLRSEDTAVYYCARRLMSAISGPGAPLLMWGQGTLVTVSS
VL: QSALTQPRSVSGSPGQSVTISCTGTSSDVGGYNYVSWYQQHPGKAPKLMIYDVSKRPSGVPDRFSGSKSGNTASLTISGLQAEDEADYYCSSYTSSDTLEIFGGGTKLTVL
B3: RAA22 IgG (antibody, V domains shown)
VH: B2 VH
VL: B2 VL
notes: Bivalent parental IgG; Only the variable domains are tied to the parental IgG; also called anti-EGFR antibody clone RAA22
B4: QD6 IgG (antibody, V domains shown)
VH: B2 VH with F55V
VL: B2 VL with K55E, S91F
notes: Only variable domains are tied to the parental IgG; also called QD06; anti-EGFR antibody clone QD6
B5: B09/R347 (bispecific antibody, part only; not given: non-binding arm and constant regions, V domains shown, not shown: another chain or arm of the molecule; a dimerising Fc or GST; small tags and cut ends)
VH: QVQLVQSGAEVKKPGASVKVSCKASGYTFTDYYIHWVRQATGQGLEWMGWMNPNSGNTGYAQKFQGRVTMTRDTSISTAYMELSSLRSEDTAVYYCARGQGYTHSWGQGTMVTVSS
VL: DIQMTQSPSTLSASVGDRVTITCRASEGIYHWLAWYQQKPGKAPKLLIYKASSLASGVPSRFSGSGSGTEFTLTISSLQPDDFATYYCQQYSNYPPTFGGGTKLEIK
modifications: AlexaFluor-647 or pHAb dye label on amines; positions not defined

Columns and labels:
Mouse cMET (recombinant) = Mouse cMET (recombinant) (mouse, UniProt P16056 25-931, limits assumed); experiment: ELISA, antigen coated at 1 ug/mL, anti-human Fab-HRP detection, A450
Description: (§1) Specificity for EGFR and cMET species paralogs and closely related family members was determined by ELISA. Briefly, antigen solutions were prepared in PBS at 1 μg/mL and 50 microliters was coated onto half area ELISA assay plates. Plates were washed and blocked with 1% BSA in PBS containing 0.005% Tween-20 (PBS-T) for one hour at room temperature. […] Wells were incubated with 50 microliters of the indicated primary antibodies diluted in PBS-T in a 1:3 dilution series, starting at 10 μg/mL and ending at 0.002 ug/mL, except for the HER4 binding mAb control, MAB1131, for which the series started at 1 μg/mL. The wells were washed 4 times in PBS-T, then 50 μl of goat anti-human Fab HRP-labeled secondary antibody, diluted 1:5000 in PBS-T, was added to each well and incubated for one hour at room temperature. […] 50 microliters of TMB stop solution was added to all wells and the absorbance was read at 450 nm on a SpectraMax M5 microplate reader. Data were analyzed in the SoftMax Pro 5 software and plotted using GraphPad Prism 7 graphing software.
(§2) To determine the species cross reactivity, ELISA assays were carried out as described above.

HER2 = target: T1, HER2 (Homo sapiens (Human), UniProt P04626 23-652); experiment: as above
T1 construct: also called EGFR HER family protein HER2

HER3 = target: T2, HER3 (Homo sapiens (Human), UniProt P21860 20-643); experiment: as above
T2 construct: also called EGFR HER family protein HER3

HER4 = target: T3, HER4 (Homo sapiens (Human), UniProt Q15303 26-651); experiment: as above
T3 construct: also called EGFR HER family protein HER4
T3 sequence: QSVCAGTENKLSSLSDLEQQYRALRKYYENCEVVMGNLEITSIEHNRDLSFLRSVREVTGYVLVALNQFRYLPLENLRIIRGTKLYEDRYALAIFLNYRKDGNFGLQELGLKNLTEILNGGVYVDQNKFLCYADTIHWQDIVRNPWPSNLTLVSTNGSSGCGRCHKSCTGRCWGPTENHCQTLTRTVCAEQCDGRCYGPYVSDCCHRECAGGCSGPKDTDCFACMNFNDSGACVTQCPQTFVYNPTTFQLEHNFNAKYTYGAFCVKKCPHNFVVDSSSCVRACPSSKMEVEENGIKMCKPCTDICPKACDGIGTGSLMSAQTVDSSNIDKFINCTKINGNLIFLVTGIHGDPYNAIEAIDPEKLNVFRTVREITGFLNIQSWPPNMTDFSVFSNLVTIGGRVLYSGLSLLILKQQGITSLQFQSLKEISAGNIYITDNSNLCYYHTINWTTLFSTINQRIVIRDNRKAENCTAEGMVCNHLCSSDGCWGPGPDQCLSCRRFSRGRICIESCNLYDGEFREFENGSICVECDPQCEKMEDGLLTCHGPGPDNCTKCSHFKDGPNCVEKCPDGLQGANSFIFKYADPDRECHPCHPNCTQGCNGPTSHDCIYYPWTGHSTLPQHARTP

[1] = target: T4, Cynomolgus monkey cMET (recombinant, soluble monomeric) (cynomolgus monkey, UniProt A0M8R7 25-932 (Papio anubis entry)); experiment: SPR (Biacore T200), antibody captured on anti-human IgG, soluble monomeric antigen as analyte, 25 C
T4 construct: also called cyno c-Met
Description: (§3) Mouse anti-human IgG was immobilized on a CM4 sensor chip with a final surface density of ˜2000 resonance units (RUs). A reference flow cell surface was also prepared on this sensor chip using identical immobilization protocol. Test and control article antibodies were prepared at 5-20 nM in instrument buffer (HBS-EP buffer; 0.01M HEPES, pH 7.4, 0.15M NaCl, 3 mM EDTA, and 0.005% P-20), along with 3-fold serial dilutions of purified EGFR (0.27-200 nM human, 0.4-900 nM cyno, and 4-1000 nM murine) or cMET proteins (0.27 to 66 nM human and 0.27-22 nM cyno) in instrument buffer. A sequential approach was utilized for kinetic measurements. Antibodies were first injected over the capture surface, at a flow rate of 10 μL/minute. Once the binding of the captured antibody stabilized, a single concentration of the analyte was injected over both capture and reference surfaces, at a flow rate of 75 μL/minute. The resulting binding response curves yielded the association phase data. Following the injection of analyte, the flow was then switched back to instrument buffer for 15 minutes to permit the collection of dissociation phase data, followed by a 1-minute pulse of 10 mM glycine, pH 1.5, to regenerate the antibody-captured surface on the chip. Binding responses against test and control article antibodies were recorded from duplicate injections of each concentration of analyte. In addition, several buffer injections were interspersed throughout the injection series. Select buffer injections were used along with the reference cell responses to correct the raw data sets for injection artifacts and/or nonspecific binding interactions, commonly referred to as “double referencing”. Corrected binding data were globally fit to a 1:1 binding model (Biacore T200 Evaluation software 2.0, GE Healthcare, Pittsburgh, PA).
(§4) Kinetic measurements to soluble monomeric forms of EGFR and cMET were performed using a BIACore instrument.

[2] = target: T5, Human EGFR (recombinant, soluble monomeric) (human, UniProt P00533 25-645); experiment: as above
T5 construct: also called EGFR antigen; recombinant human EGFR
Description: as §3, §4

[3] = target: T6, Cynomolgus monkey EGFR (recombinant, soluble monomeric) (cynomolgus monkey, UniProt P55245 25-645 (rhesus entry)); experiment: as above
T6 construct: also called cyno EGFR
Description: as §3, §4

[4] = target: T7, Mouse EGFR (recombinant, soluble monomeric) (mouse, UniProt Q01279 25-647); experiment: as above
T7 construct: also called murine EGFR
Description: as §3, §4

[5] = target: T8, Human cMET (recombinant, soluble monomeric) (human, UniProt P08581 25-932); experiment: as above
T8 construct: also called His-tagged cMET antigen
Description: as §3, §4

[6] = target: EGFR on human tumour cells (A431, NCI-H1975, HCC827) (human) (UniProt P00533); experiment: cell-based or functional assay
[7] = target: T4, Cynomolgus monkey cMET (recombinant, …); experiment: ELISA, antigen coated at 1 ug/mL, anti-human Fab-HRP detection, A450
Description: as §1, §2

[8] = target: T8, Human cMET (recombinant, soluble …); experiment: as above
Description: as §1, §2

[9] = target: c-MET on human tumour cells (NCI-H1975, HCC827) (human) (UniProt P08581); experiment: cell-based or functional assay
c-MET on human tumour cells (NCI-H1975, HCC827) (human), sequence (P08581 25-1390): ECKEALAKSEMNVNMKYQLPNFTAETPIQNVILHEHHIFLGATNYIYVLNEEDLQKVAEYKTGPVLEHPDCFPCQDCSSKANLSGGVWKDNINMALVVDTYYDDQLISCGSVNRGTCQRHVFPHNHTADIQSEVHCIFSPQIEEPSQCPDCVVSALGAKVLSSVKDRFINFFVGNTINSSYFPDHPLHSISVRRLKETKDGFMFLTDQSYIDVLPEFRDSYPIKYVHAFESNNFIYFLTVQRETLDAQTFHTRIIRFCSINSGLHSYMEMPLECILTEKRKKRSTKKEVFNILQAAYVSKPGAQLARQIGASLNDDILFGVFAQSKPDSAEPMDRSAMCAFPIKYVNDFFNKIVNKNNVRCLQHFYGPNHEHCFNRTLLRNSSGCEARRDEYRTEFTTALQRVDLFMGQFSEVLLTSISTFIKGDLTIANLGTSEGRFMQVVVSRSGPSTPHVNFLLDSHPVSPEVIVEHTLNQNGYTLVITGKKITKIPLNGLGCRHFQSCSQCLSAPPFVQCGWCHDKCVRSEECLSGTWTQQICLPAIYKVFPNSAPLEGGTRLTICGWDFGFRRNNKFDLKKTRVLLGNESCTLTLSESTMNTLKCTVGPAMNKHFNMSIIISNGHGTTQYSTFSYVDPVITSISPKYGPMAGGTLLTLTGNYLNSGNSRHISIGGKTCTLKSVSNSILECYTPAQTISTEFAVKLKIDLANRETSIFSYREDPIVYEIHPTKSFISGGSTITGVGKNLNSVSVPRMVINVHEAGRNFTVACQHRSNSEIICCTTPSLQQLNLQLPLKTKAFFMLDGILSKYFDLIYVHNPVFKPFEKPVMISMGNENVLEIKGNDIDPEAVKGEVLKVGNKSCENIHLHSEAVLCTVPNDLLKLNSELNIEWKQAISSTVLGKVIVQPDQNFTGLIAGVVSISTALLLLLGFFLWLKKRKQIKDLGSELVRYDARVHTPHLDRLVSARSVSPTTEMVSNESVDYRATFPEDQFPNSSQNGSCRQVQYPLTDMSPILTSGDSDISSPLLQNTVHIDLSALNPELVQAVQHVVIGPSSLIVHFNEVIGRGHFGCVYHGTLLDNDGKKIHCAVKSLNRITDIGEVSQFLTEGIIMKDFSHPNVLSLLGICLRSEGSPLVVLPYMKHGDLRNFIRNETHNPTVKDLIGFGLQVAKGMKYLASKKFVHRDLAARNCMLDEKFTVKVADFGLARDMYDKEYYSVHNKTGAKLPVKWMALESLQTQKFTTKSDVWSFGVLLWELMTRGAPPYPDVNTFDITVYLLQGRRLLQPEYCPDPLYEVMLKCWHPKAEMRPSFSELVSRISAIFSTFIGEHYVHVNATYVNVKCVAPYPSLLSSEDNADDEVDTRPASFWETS

T4 sequence (A0M8R7 25-932 S170N/I621T): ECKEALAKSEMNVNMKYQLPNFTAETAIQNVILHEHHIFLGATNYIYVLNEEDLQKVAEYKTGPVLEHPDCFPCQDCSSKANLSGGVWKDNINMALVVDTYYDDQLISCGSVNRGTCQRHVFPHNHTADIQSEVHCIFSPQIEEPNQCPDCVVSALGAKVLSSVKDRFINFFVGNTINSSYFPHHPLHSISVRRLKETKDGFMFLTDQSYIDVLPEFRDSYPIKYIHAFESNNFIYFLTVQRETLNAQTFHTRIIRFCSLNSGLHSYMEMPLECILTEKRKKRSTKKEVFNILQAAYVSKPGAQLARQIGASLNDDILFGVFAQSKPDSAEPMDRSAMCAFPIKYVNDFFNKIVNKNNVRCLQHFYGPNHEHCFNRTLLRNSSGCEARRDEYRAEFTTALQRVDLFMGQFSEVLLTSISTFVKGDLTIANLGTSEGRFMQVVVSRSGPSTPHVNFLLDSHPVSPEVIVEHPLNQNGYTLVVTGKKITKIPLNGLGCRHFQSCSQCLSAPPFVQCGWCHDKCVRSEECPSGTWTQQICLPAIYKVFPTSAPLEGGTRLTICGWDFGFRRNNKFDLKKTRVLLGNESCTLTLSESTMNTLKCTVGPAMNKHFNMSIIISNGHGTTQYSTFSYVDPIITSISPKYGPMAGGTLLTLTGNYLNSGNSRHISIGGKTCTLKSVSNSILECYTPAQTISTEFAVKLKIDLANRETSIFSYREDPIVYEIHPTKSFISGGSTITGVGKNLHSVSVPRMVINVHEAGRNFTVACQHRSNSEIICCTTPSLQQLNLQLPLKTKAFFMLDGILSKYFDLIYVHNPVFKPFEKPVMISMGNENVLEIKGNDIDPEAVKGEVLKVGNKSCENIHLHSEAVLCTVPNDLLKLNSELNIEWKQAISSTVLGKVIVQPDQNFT
T8 sequence (P08581 25-932): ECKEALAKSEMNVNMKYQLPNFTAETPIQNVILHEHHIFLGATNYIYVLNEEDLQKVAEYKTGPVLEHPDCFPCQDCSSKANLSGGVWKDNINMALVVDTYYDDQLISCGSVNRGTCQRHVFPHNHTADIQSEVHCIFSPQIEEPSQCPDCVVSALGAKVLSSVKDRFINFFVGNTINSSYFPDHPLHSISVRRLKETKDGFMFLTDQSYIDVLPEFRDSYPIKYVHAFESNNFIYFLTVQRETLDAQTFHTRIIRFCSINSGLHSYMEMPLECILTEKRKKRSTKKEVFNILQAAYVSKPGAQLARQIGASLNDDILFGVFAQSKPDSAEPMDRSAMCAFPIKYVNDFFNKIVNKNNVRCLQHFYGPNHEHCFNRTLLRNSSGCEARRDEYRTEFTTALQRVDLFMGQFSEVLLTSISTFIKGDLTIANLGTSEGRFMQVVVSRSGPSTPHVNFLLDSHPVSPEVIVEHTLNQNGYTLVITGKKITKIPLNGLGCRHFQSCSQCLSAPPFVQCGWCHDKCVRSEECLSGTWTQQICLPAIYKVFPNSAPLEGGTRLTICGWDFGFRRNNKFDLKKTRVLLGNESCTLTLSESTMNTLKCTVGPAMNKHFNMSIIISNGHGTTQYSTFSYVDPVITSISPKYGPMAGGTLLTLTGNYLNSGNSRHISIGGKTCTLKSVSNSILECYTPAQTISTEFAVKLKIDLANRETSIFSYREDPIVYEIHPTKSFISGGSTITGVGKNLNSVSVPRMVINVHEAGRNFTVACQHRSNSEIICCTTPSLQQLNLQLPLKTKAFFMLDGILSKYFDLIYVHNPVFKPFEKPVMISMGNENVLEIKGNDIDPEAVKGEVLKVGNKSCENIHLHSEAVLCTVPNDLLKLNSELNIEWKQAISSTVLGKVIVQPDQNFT
Mouse cMET (recombinant), sequence (P16056 25-931 limits assumed): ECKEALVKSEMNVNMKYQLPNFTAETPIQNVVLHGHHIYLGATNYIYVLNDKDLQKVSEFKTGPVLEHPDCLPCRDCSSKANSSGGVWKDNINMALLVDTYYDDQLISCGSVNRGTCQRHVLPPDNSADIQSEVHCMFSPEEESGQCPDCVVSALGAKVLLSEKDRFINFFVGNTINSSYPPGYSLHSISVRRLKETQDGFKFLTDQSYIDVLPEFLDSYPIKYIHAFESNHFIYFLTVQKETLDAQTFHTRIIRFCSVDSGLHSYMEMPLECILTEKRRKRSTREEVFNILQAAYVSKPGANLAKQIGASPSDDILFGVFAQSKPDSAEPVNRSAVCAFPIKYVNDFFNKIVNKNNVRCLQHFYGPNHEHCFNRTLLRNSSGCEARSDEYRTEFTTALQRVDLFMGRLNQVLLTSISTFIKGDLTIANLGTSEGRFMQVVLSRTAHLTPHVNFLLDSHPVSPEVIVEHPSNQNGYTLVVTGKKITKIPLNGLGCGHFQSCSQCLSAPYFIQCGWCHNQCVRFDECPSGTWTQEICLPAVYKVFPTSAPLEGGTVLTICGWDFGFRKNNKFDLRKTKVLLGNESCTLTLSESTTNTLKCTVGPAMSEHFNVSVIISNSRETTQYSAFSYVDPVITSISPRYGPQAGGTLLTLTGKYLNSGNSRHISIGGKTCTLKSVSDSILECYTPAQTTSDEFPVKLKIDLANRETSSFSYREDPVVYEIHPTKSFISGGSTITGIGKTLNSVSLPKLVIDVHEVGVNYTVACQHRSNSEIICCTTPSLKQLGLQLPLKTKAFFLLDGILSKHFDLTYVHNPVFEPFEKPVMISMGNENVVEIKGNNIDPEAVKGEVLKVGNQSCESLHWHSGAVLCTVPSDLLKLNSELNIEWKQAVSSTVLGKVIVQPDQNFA

Binder	binding result (Mouse cMET (recombinant))	binding result (HER2)	binding result (HER3)	binding result (HER4)	Kd [2] [nM]	koff [2] [s⁻¹]	kon [2] [M⁻¹ s⁻¹]	Kd [3] [nM]	koff [3] [s⁻¹]	kon [3] [M⁻¹ s⁻¹]	Kd [4] [nM]	koff [4] [s⁻¹]	kon [4] [M⁻¹ s⁻¹]	binding result [7]	binding result [8]	other results
B1	no binding (tested: 10 ug/ml)	no binding (tested: 10 ug/ml)	no binding (tested: 10 ug/ml)	no binding (tested: 10 ug/ml)	5.9	0.000374	63500	2.8	0.000585	210000	6.2	0.00078	126000			Kd [1]: 2.2 nM; koff [1]: 0.00206 s⁻¹; kon [1]: 958000 M⁻¹ s⁻¹; Kd [5]: 1.6 nM; koff [5]: 0.000696 s⁻¹; kon [5]: 425000 M⁻¹ s⁻¹
B2																IC50, CellTiter-Glo cytotoxicity on NCI H1975 cells (FIG. 11) [6]: 20.5 nM; fold difference in IC50 against the bispecific EGFR-cMET ADC [6]: 65 fold
B3	no binding (tested: 10 ug/ml)	no binding (tested: 10 ug/ml)	no binding (tested: 10 ug/ml)	no binding (tested: 10 ug/ml)	46.6	0.00206	44100	170	0.00601	35400	488	0.019	40300	no binding (tested: 10 ug/ml)	no binding (tested: 10 ug/ml)	
B4	no binding (tested: 10 ug/ml)	no binding (tested: 10 ug/ml)	no binding (tested: 10 ug/ml)	no binding (tested: 10 ug/ml)	2	0.000292	148000	2.5	0.000288	114000	4.4	0.000735	167000	no binding (tested: 10 ug/ml)	no binding (tested: 10 ug/ml)	
B5																cytoplasmic intensity of AF647-labelled antibody in H1975 cells, fold higher for RAA22/B09 DuetMab than for B09-IgG (FIG. 7B) [9]: 4.7 fold

Reference: US20240360226A1 (AstraZeneca / MedImmune, published 2024)
